Assay [1] has as its system PD2560. Description: Cisplatin mediated cell death (cleaved caspase 3 immunoblot) with or without IL-22 pre-treatment. The class given is cell-based, murine. The method, then:
Chemoresistance is a well-established phenomenon in PDAC and is often responsible for disease progression and death. […] Cells were then treated with varying doses of cisplatin and cell death assessed by immunoblot for cleaved caspase 3. Degree of DNA damage was determined by measurement of phosphorylated histone 2AX (pH2AX), a marker of DNA damage triggered by cisplatin (ref. 39; incorporated by reference in its entirety). […] The differences in cell death appeared to be mediated by changes in DNA damage (FIG. 6 Panel B).
In general terms: A western blot detects proteins with antibodies after separation by electrophoresis.

Assay [2] has as its target T1, IL-22 (Homo sapiens, UniProt Q9GZX6).
T1 sequence (Q9GZX6 34-179): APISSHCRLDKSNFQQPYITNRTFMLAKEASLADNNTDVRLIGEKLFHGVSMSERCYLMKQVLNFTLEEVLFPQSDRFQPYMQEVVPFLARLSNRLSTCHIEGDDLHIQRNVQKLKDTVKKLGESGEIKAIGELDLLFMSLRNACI
The experiment in a line: Neutralization of human IL-22 by IL-22BP, read out as pSTAT3 activation in PDAC lines. The class given is cell-based. Conditions: IL-22 100 ng/ml incubated 30 minutes with IL-22BP 0-1000 ng/ml, pSTAT3 at 15 minutes in PDAC lines. The method, then:
(§1) IL-22BP is an important regulator of IL-22 signaling at the tissue level and functions by sequestering cytokine and blocking its ability to bind to its cognate receptor. Its high affinity for IL-22 and neutralizing ability make it an attractive target for pharmacologic disruption of IL-22 signaling. To determine its efficacy in vitro, a fixed concentration of human and mouse IL-22 (100 ng/ml) was incubated for 30 minutes with increasing concentrations of human or mouse IL-22BP (0-1000 ng/ml). The mixture was then placed onto human and murine PDAC lines and IL-22 signaling measured by pSTAT3 activation at 15 minutes. […] A fusion protein which binds hIL-22BP to murine albumin was constructed.

For assay [3], the target named is T2, mouse IL-22 (Mus musculus, UniProt Q9JJY9).
T2 sequence (Q9JJY9 34-179): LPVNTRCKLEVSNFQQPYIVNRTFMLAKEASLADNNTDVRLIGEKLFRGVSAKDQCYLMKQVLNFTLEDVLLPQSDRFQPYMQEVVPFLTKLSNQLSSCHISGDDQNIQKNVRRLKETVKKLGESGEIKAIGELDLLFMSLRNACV
The experiment in a line: Neutralization of mouse IL-22 by IL-22BP, read out as pSTAT3 activation in PDAC lines. The class given is cell-based. The settings on record: IL-22 100 ng/ml incubated 30 minutes with IL-22BP 0-1000 ng/ml, pSTAT3 at 15 minutes in PDAC lines. Here is the method: as §1

Assay [4] has as its target T3, IL-22BP-Alb fusion protein (human IL-22BP fused to murine albumin) (Homo sapiens; mouse, UniProt Q969J5 22-263).
T3 construct: also called fusion protein of hIL-22BP and albumin; not shown: serum albumin, mouse, cloned from mouse liver
T3 sequence: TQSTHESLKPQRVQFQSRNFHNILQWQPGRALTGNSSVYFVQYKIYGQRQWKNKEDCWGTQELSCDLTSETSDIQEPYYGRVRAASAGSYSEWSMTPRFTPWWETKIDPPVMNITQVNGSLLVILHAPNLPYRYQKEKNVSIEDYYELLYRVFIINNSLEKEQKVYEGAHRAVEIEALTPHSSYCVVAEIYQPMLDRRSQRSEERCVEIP
The experiment in a line: binding inferred from neutralisation of IL-22-induced pSTAT3 signaling in vitro. The method, then:
as §1

Assay [5] has as its target T4, human IL-22 binding protein (IL-22BP) (Homo sapiens, UniProt Q969J5 22-263).
T4 construct: also called hIL-22BP; human IL-22BP
T4 sequence: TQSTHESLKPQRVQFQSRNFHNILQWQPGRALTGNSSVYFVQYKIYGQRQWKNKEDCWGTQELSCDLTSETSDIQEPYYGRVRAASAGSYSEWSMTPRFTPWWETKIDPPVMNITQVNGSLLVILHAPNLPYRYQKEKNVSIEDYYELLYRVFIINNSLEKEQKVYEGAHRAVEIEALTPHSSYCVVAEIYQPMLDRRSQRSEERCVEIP
Description: binding inferred from neutralisation of IL-22-induced pSTAT3 on PDAC cells (immunoblot).

For assay [6], the system named is PKCY cells. The experiment in a line: Matrigel invasion assay, PDAC line. The class given is cell-based, murine. Conditions: IL-22 incubation compared to control conditions (untreated and IL-6). Here is the method: (§2) To establish the role of IL-22 in pancreatic tumorigenesis in vitro, the murine PDAC line PKCY and PanIN lines 134, 5505 and 5552 were incubated in IL-22. Matrigel invasion assays were performed and number of infiltrating cells quantified. IL-22 incubation induced a 10-fold increase in invasion of PKCY cells compared to control conditions (untreated and IL-6) (FIG. 5 Panel A). […] Wild-type and IL-22 knockout mice were subcutaneously inoculated with equal quantities of PKCY cells. At 21 days, mice were sacrificed and tumor development, size and weight were determined.

Assay [7] relates to PanIN cell lines. The experiment in a line: Matrigel invasion assay, PanIN lines. In kind it is cell-based, murine. Conditions: IL-22 incubation; two PanIN cell lines with little to no invasive capability at baseline. The method, then:
as §2

For assay [8], the system named is human and mouse PDAC cell lines. Description: Immunoblotting for STAT3 and NF-κB activation after IL-22 incubation. In kind it is cell-based. The settings on record: 100 ng/ml of IL-22 for 15 and 30 minutes. An excerpt:
One of the principle signaling pathways activated by ligand binding at IL-22R1 is via JAK mediated phosphorylation of STAT3 (pSTAT3) (Refs. 7, 36, 37; incorporated by reference in its entirety). Because of constitutive association of STAT3 with the intracellular domain of the receptor, signaling is activated rapidly and efficiently upon IL-22 binding (ref 38; incorporated by reference in its entirety). A second, less described IL-22 signaling pathway is via NF-κB, which leads to transcription of genes associated with proliferation and prevention of apoptosis (ref. 6, 7; incorporated by reference in their entireties). To evaluate the ability of IL-22 to activate STAT3 and NF-κB in human and mouse PDAC, cell lines were incubated with 100 ng/ml of IL-22 for 15 and 30 minutes. […] To determine the presence of STAT3 activation in-vivo, IHC for pSTAT3 was performed on pancreata harvested from PKCY mice at 8 weeks (low-grade PanIN), 12 weeks (high-grade PanIN) and after ultrasound confirmation of PDAC. pSTAT3 staining was increased as lesions advanced from low grade PanIN to invasive cancer (FIG. 4B-D).

Assay [9] deals with T1, IL-22. The experiment in a line: In vitro testing of fusion protein for sequestration and abrogation of STAT3 signaling. In kind it is cell-based. Conditions: IL-22 species not stated, FIG. 6 Panel E. Here is the method:
as §1

For `N.N.[Cl][Pt][Cl]` [cisplatin, reference compound], in assay [1] (murine PDAC line PD2560, low and high doses), the “cell death by cisplatin (cleaved caspase 3)” value is listed as “showed sensitivity”.

B1: Human IL-22BP: human interleukin-22 binding protein, soluble receptor capable of cytokine neutralization (SEQ ID NO: 1) (protein, listed as Homo sapiens)
chain: MMPKHCFLGFLISFFLTGVAGTQSTHESLKPQRVQFQSRNFHNILQWQPGRALTGNSSVYFVQYKIYGQRQWKNKEDCWGTQELSCDLTSETSDIQEPYYGRVRAASAGSYSEWSMTPRFTPWWETKIDPPVMNITQVNGSLLVILHAPNLPYRYQKEKNVSIEDYYELLYRVFIINNSLEKEQKVYEGAHRAVEIEALTPHSSYCVVAEIYQPMLDRRSQRSEERCVEIP
For B1, the “neutralization of human IL-22 (pSTAT3 activation)” value was “completely neutralizing” in assay [2]; “capable of binding and neutralizing” in [2] (listed as hIL-22BP). Moreover, the “neutralization of murine IL-22 (pSTAT3 activation)” value in assay [3] was “completely neutralizing”; in [3] (listed as hIL-22BP), “capable of binding and neutralizing”.

B2: human IL-22 (ligand, UniProt Q9GZX6 34-179, looked up)
chain: APISSHCRLDKSNFQQPYITNRTFMLAKEASLADNNTDVRLIGEKLFHGVSMSERCYLMKQVLNFTLEEVLFPQSDRFQPYMQEVVPFLARLSNRLSTCHIEGDDLHIQRNVQKLKDTVKKLGESGEIKAIGELDLLFMSLRNACI
notes: Used at a fixed 100 ng/ml
Turning to B2, the binding result in [4] and in assay [5] was “binds” throughout.

B3: IL-22: α-helical cytokine that binds the heterodimeric cell surface receptor IL-22R (protein, UniProt Q9GZX6 34-179, looked up)
Interleukin-22: APISSHCRLDKSNFQQPYITNRTFMLAKEASLADNNTDVRLIGEKLFHGVSMSERCYLMKQVLNFTLEEVLFPQSDRFQPYMQEVVPFLARLSNRLSTCHIEGDDLHIQRNVQKLKDTVKKLGESGEIKAIGELDLLFMSLRNACI
On to B3, for which, in [6], the “increase in invasion of PKCY cells” value is reported as 10 fold. In addition, the “invasion of PanIN cell lines” value in assay [7] is “induced invasion”. The “effect of IL-22 pre-treatment on sensitivity to cisplatin” value in [1] (PD2560 cultured in IL-22 for 4 days before cisplatin) is “diminished”. Also, the pSTAT3 activation result in [8] is given as “robust pSTAT3 activation”. Further, the pNF-κB result in assay [8] (KPC and PKCY lines) is reported as “modest increase”.

B4: mouse IL-22 (ligand, UniProt Q9JJY9 34-179, looked up)
chain: LPVNTRCKLEVSNFQQPYIVNRTFMLAKEASLADNNTDVRLIGEKLFRGVSAKDQCYLMKQVLNFTLEDVLLPQSDRFQPYMQEVVPFLTKLSNQLSSCHISGDDQNIQKNVRRLKETVKKLGESGEIKAIGELDLLFMSLRNACV
notes: Used at a fixed 100 ng/ml; also called murine IL-22
Turning to B4, the binding result in assay [4] and in assay [5] was “binds” in each case.

B5: IL-22BP-Alb: fusion protein which binds hIL-22BP to murine albumin (protein)
chain: TQSTHESLKPQRVQFQSRNFHNILQWQPGRALTGNSSVYFVQYKIYGQRQWKNKEDCWGTQELSCDLTSETSDIQEPYYGRVRAASAGSYSEWSMTPRFTPWWETKIDPPVMNITQVNGSLLVILHAPNLPYRYQKEKNVSIEDYYELLYRVFIINNSLEKEQKVYEGAHRAVEIEALTPHSSYCVVAEIYQPMLDRRSQRSEERCVEIP
modifications: left off: large carriers
Turning to B5, in [9], the “neutralization of IL-22 (sequestration and abrogation of STAT3 signaling)” value was “capable of neutralizing IL-22”. In addition, the “neutralization of human IL-22 (pSTAT3 activation)” value in assay [2] was “capable of binding and neutralizing”. The “neutralization of murine IL-22 (pSTAT3 activation)” value in [3] was “capable of binding and neutralizing”.

B6: murine IL-22BP: mouse interleukin-22 binding protein (SEQ ID NO: 2) (protein, listed as Mus musculus)
chain: MMPKHCLLGLLIILLSSATALEIQPARVSLTPQKVRFQSRNFHNILHWQAGSSLPSNNSIYFVQYKMYGQSQWEDKVDCWGTTALFCDLTNETLDPYELYYGRVMTACAGRHSAWTRTPRFTPWWETKLDPPVVTITRVNASLRVLLRPPELPNRNQSGKNASMETYYGLVYRVFTINNSLEKEQKAYEGTQRAVEIEGLIPHSSYCVVAEMYQPMFDRRSPRSKERCVQIP
For B6, in assay [2], the “neutralization of human IL-22 (pSTAT3 activation)” value is given as “little sequestration”. Moreover, the “neutralization of murine IL-22 (pSTAT3 activation)” value in assay [3] was “little sequestration”.
